Results taken from article PMC6451337, “The Toxoplasma gondii dense granule protein TgGRA3 interacts with host Golgi and dysregulates anterograde transport” (Biology Open, 2019).

Key:
[1] = target: the molecule itself; test: native gel or EMSA; proteins cleaved from glutathione-Sepharose beads with PreScission protease in 25 mM Tris pH 8, 1 mM DTT, 0.5 mM PMSF, 1 mM EDTA; 10% Tris-glycine native gel, unheated against heated; Coomassie Blue stain and Western blot
[2] = target: the molecule itself; test: SEC; GRA3_(43-161) cleaved from GST with PreScission protease, Superdex 200 Increase 3.2/300 column, AKTA Micro FPLC; protein standards 12,000-200,000 for the standard curve

B1: GRA3_HA-Δ43-71 (domain or fragment, Toxoplasma gondii, UniProt B6KEU8 72-161, looked up)
chain: ESYSSATSGVQEATAPGAVLLDAIDAESDKVDNQAEGGERMKKVEEELSLLRRELYDRTDRPGLKRAVILSLATSAAIGGRMVSRTLRDN
notes: also called GST-HA-Δ43-71, after cleavage; source: E. coli BL21, captured on glutathione-Sepharose beads, cleaved with PreScission protease; not shown: GST, N-terminal, cleaved; HA, N-terminal, kept
[1]
  binding result: binds

B2: GRA3_(43-161), cleaved from GST (domain or fragment, Toxoplasma gondii, UniProt B6KEU8 43-161, looked up)
chain: ADQPENHQALAEPVTGVGEAGVSPVNEAGESYSSATSGVQEATAPGAVLLDAIDAESDKVDNQAEGGERMKKVEEELSLLRRELYDRTDRPGLKRAVILSLATSAAIGGRMVSRTLRDN
notes: amplified from parasite cDNA; Cloned at the BamHI site of pGEX6-P3; also called TgGRA3 recombinant protein; source: E. coli BL21, purified on glutathione-Sepharose, cleaved with PreScission protease; not shown: GST, N-terminal, cleaved
[2]
  stoichiometry N: 2
